# Patent US5811393A (The Childrens Medical Center Corp., priority 1993, dated 1998)
# B1: HB-EHM: novel heparin binding growth factor with EGF-homologous segment, purified from U-937 lymphoma cell conditioned medium, about 22 kD (protein)
# chain: RVTLSSKPQALATPNKEEHGKRKKKGKGLGKKRDPCLRKYKDFCIHGECKYVKELRAPSCICHPGYHGERCHGLS
# modifications: O-linked glycosylation (suggested by O-glycanase treatment; the threonines predicted at positions 2 and 12 of the form first sequenced were not detected in protein sequencing)
# Test system: bovine aortic smooth muscle cells
# Assay: [3H]-thymidine incorporation into smooth muscle cell DNA
# Assay type: cell-based
# Conditions: purification steps of HB-EHM from 8 L U-937 conditioned medium
# Protocol: Conditioned medium was assayed for growth factor activity directly, as described below, using either fibroblasts (i.e., BALB/c mouse 3T3 cells), epithelial cells (i.e., human keratinocytes), or smooth muscle cells (i.e., bovine aortic smooth muscle cells, BASMC). Alternatively, CM was first fractionated by fast protein liquid chromatography (FPLC, Pharmacia, Piscataway, N.J.) by applying 500 ml of the CM to a TSK-heparin 5PW column (8×75 mm, TOSOHAAS, Philadelphia, Pa.). The column was washed with 10 column volumes of equilibration buffer (0.2M NaCl, 0.01M Tris-HCl, pH 7.5), and bound protein was eluted with a 40 ml linear gradient of 0.2-2M NaCl in 0.01M Tris-HCl , pH 7.4 at 1 ml/min. Fractions (2.5 ml) were tested for growth factor activity by measuring the effect of aliquots of the fractions on DNA synthesis in, or the proliferation of, BALB/c mouse 3T3 cells; such activity was monitored by assaying the incorporation of [^3 H]-thymidine into DNA and/or by measuring the increase in cell number. Measurement of DNA synthesis in BALB/c mouse 3T3 cells was performed as described by Shing et al. (223 Science 1296, 1984, hereby incorporated by reference). One unit of BALB/c mouse 3T3 stimulation activity was defined as the amount of growth factor required to stimulate half-maximal DNA synthesis in BALB/c mouse 3T3 cells under the conditions described in Shing et al. (supra). […]
molecule,measurement,value
B1,Maximal Stimulation,0.5 ng/mL
